According to patent US20170306005A1 (NASCIENT, published 2017):
Substitutions are numbered along the chain they refer to. Numbers in names are those of the source.

B1: 165_13_B6 human IgG4 (antibody, V domains shown)
VH: QVQLVESGGGLVQPGRSLRLSCAASGFTFDDYAMHWVRQAPGKGLEWVSGISGSGGSTYYADSVKGRFTISRDNAKNSLYLQMNSLRAEDTALYYCAKGQKGEGDTFDIWGQGTMVTVSS
VL: DIQMTQSPASLPTPVGDRVTITCRASQYIQGFLNWYQQKPGKAPKLLIYDASNLETGVPSRFSGSGSGTDFTLTISSLQPEDFATYYCQQSYSTPQTFGQGTKVDIKR
notes: human IgG4 with hinge S241P
B2: 165_13_D4 human IgG4 (antibody, V domains shown)
VH: B1 VH with Q100T, K101V
VL: B1 VL
notes: human IgG4 with hinge S241P
B3: 162_02_C1 scFv (scFv, V domains shown, not shown: small tags and cut ends)
VH: EVRLVQSGAEVKKPGASVKVSCKVSGYTLTELSMHWVRQAPGKGLEWMGGFDPEDGETIYAQKFQGRVTMTEDTSTDTAYMELSSLRSEDTAVYYCATAQKETYALTYWGQGTLVTVSS
VL: DIQMTQSPASLPTSVGDRVTITCRASQYIQGFLNWYQQKPGKAPRLLIYAASTLQDGVPSRFSGSGYGTDFTLTISSLQPEDFATYYCLHHYRAPWTFGQGTKVEIK
notes: E. coli supernatant scFv
B4: 162_02_C2 scFv (scFv, V domains shown, not shown: small tags and cut ends)
VH: B3 VH
VL: B3 VL with L89M
notes: E. coli supernatant scFv
B5: 162_02_C6 scFv (scFv, V domains shown, not shown: small tags and cut ends)
VH: B3 VH
VL: B3 VL with L89Q, H90N, H91Q, R93A, A94G
notes: E. coli supernatant scFv
B6: 162_02_D3 scFv (scFv, V domains shown, not shown: small tags and cut ends)
VH: B3 VH with K101I, E102H, T103P, Y104L, A105G
VL: B3 VL with L89Q, H90Q, H91S, R93S, A94T
notes: E. coli supernatant scFv
B7: 162_02_F4 scFv (scFv, V domains shown, not shown: small tags and cut ends)
VH: B3 VH
VL: B3 VL with L89M, A94S
notes: E. coli supernatant scFv
B8: 162_02_H5 scFv (scFv, V domains shown, not shown: small tags and cut ends)
VH: B3 VH
VL: B3 VL with L89Q, H90N, H91Q, R93T, A94G
notes: E. coli supernatant scFv
B9: 163_02_A12 scFv (scFv, V domains shown)
VH: B3 VH
VL: B3 VL with A94E
notes: E. coli supernatant scFv; not shown: scFv linker, domain order and the pSANG10 tags (FLAG/His)
B10: 163_02_D11 scFv (scFv, V domains shown)
VH: B3 VH
VL: B3 VL with R93K, A94S
notes: as for B9
B11: 165_13_D1 scFv (scFv, V domains shown, not shown: small tags and cut ends)
VH: B1 VH with Q100T, K101R
VL: DIQMTQSPASLPTPVGDRVTITCRASQYIQGFLNWYQQKPGKAPKLLIYDASNLETGVPSRFSGSGSGTDFTLTISSLQPEDFATYYCQQSYSTPQTFGQGTKVDIK
notes: E. coli supernatant scFv
B12: 165_13_B1 scFv (scFv, V domains shown, not shown: small tags and cut ends)
VH: B1 VH with G99V, Q100M, K101S, G102S, E103M, G104E, T106A
VL: B11 VL
notes: E. coli supernatant scFv
B13: 165_13_B6 scFv (scFv, V domains shown, not shown: small tags and cut ends)
VH: B1 VH
VL: B11 VL
notes: E. coli supernatant scFv
B14: 2A5 human IgG4 (antibody, V domains shown)
VH: B3 VH
VL: B1 VL with P14S, K45R, D50A, N53T, E55Q, T56D, S67Y, Q96W, D105E
notes: human IgG4 with hinge S241P; also called 2A5 parent

What was measured:
[1] = molecular target: T1, human tenascin-C rCd4-His-FBG (rat; human, UniProt P05540 207-392, limits assumed); experiment: SPR off-rate screen, captured IgG4 supernatant, 25 C
T1 construct: domain: domains 3 and 4; C-terminal FBG fusion; biotinylated in the ELISA and HTRF screens; also called Hu TNC; human TNC rCd4-His-FBG; not shown: 6His tag
T1 sequence (chain (part 1 of 2)): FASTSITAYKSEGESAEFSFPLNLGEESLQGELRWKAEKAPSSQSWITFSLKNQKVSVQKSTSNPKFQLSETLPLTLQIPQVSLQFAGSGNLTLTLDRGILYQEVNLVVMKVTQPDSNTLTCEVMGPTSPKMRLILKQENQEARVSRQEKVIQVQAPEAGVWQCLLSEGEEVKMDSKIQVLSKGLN
T1 sequence (chain (part 2 of 2)): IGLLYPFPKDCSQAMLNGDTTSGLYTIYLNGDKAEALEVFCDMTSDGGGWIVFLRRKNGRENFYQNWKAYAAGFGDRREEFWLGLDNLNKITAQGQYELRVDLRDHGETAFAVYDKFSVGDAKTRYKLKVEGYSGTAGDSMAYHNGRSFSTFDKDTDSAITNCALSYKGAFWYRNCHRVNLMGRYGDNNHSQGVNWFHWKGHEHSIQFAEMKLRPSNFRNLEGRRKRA
Procedure: (§1) The 31 scFv of interest were sub-cloned into a human IgG4 expression vector for generation of antibodies as human IgG4 with a hinge-stabilising mutation (S241P; Angal et al, 1993). […] Briefly, surface plasmon resonance (SPR) experiments were performed using a BIAcore T100 instrument and followed the protocol according to the Human antibody capture kit protocol (GE, BR-1008-39). For off-rate screening, 10,000 response units (RU) of anti-human Fc IgG (GE, BR-1008-39) was immobilised on flow-cells (FC1 and FC2) of a Series 5 CM5 dextran sensor chip (BR-1005-30) using EDC/NHS cross-linking chemistry according to the amine coupling kit protocol (GE, BR-1000-50). Culture supernatants containing expressed IgG4 were diluted 1:2 with 2×PBS-T and injected into FC2 (flowrate 5 μl/min, 60 s contact time) to enable antibody capture at 25° C. […] A fixed concentration of antigen (15 nM of human and mouse TNC rCd4-His-FBG and 100 nM of human TNR rCd4-His-FBG) was injected with a flow-path via FC 1 (reference flow cell) and FC 2 (antibody capture flow cell), with a flow rate of 30 μl/min, and the association and dissociation phases measured over 1 and 5 min time periods, respectively. Regeneration of the binding surface employed 3M MgCl₂ with 30 s contact time. Off rates were determined by reference cell subtraction and fitting the sensogram experimental data assuming a 1:1 interaction using BIAevaluation software (GE, BR-1005-97).

[2] = molecular target: T2, mouse tenascin-C rCd4-His-FBG (rat; mouse, UniProt P05540 207-392, limits assumed); experiment: as above
T2 construct: domain: domains 3 and 4; C-terminal FBG fusion; biotinylated in the ELISA screen; also called Mu TNC; mouse TNC rCd4-His-FBG; not shown: 6His tag
T2 sequence (chain (part 1 of 2)): T1 sequence (chain (part 1 of 2))
T2 sequence (chain (part 2 of 2)): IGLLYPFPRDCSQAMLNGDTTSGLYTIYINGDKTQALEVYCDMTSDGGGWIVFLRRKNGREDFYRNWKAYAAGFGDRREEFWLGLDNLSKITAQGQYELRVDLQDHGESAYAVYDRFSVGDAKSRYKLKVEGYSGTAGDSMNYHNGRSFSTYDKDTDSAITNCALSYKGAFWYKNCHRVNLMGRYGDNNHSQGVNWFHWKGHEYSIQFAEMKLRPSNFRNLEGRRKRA
Procedure: as §1

[3] = molecular target: T3, human tenascin-R rCd4-His-FBG (rat; human, UniProt P05540 207-392, limits assumed); experiment: as above
T3 construct: domain: domains 3 and 4; C-terminal FBG fusion; also called Hu TNR; human TNR rCd4-His-FBG; not shown: 6His tag
T3 sequence (chain (part 1 of 2)): T1 sequence (chain (part 1 of 2))
T3 sequence (chain (part 2 of 2)): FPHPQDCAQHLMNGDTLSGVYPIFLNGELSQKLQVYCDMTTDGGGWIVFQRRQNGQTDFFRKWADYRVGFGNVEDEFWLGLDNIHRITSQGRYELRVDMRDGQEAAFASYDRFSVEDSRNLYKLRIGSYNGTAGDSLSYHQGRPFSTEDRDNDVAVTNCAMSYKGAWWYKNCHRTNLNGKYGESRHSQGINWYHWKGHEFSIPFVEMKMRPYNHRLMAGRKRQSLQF
Procedure: as §1

[4] = molecular target: T2, mouse tenascin-C rCd4-His-FBG; experiment: anti-FLAG capture ELISA, scFv supernatant
[5] = molecular target: T1, human tenascin-C rCd4-His-FBG; experiment: HTRF competition; competitor d2-labelled B12 IgG
Procedure: All samples and reagents were prepared in assay buffer (50 mM NaPO₄, 0.1% BSA, 0.4 M KF, pH 7.0) at 4× the stated concentration. 5 μl of each reagent was subsequently added to low volume 384-well assay plates (Greiner, 784075) to give a final reaction volume of 20 μl. IgG antibodies were labelled using the d2 labelling kit (CisBio, 62D2DPEA) as directed by the manufacturer. Streptavidin europium cryptate (CisBio, 610SAKLA, Lot#25C) was used at a final concentration of 1.8 ng active moiety (SA) per 20 μl reaction as recommended by the manufacturer. Biotinylated rCd4-His-FBG was prepared using EZ-link Sulfo-NHS-LC-Biotin reagent (Thermo Scientific, 21327) the extent of biotinylation was quantified using biotinylation fluorescence quantitation kit (Thermo Scientific, 46610). Where appropriate, supernatants containing scFv (prepared as described above for ELISA assays) were added to the 384-well assay plate at a final dilution of 1/20 (i.e. 1/5 dilution in assay buffer followed by addition of 5 μl diluted sample to the 20 μl FRET assay). […] Samples were incubated for approximately 1 h at room temperature and the FRET signal was determined using a BMG Pherastar instrument: excitation=320 nm; emission=620 nm and 665 nm; integration start time=60 μs; integration time=500 μs; 100 flashes per well. For competition assays containing culture supernatant, biotinylated rCd4-His-FBG antigen was pre-incubated with streptavidin europium cryptate for 45 min prior to addition of reagents to the assay plate. All FRET signals are presented as ΔR, where R=(E665/E620×104) and ΔR=(Rsample−Rbackground fluorescence).

[6] = molecular target: T1, human tenascin-C rCd4-His-FBG; experiment: SPR, captured purified IgG4, 37 C
Procedure: (§2) Detailed kinetic parameters were evaluated for the 9 prioritised IgG4 antibodies. Binding characteristics were determined for interaction with human, rat and dog TNC rCD4-His-FBG, and human TNR rCD4-His-FBG. Kinetic assays followed essentially the same protocols as for the off-rate determinations described above, with some modifications as follows. […] Purified anti-FBG IgG4 was diluted to a concentration of 3.5 nM in PBS, pH 7.4, 0.05% Tween-20 and injected into FC2 at a flow rate of 10 μl/min, 60 s contact time. […] Antigens were prepared by doubling dilution in PBS, pH 7.4, 0.05% Tween-20 (highest concentration 100 nM except mouse rCD4-His-FBG which was 7 nM). Assays were performed at 37° C. (30 μl/min, 120 s contact time; mouse rCD4-His-FBGFBG 10 μl/min, 60 s contact time), with both the flow cell and injection chamber equilibrated to this temperature. As before, kinetic parameters were determined by reference cell subtraction and fitting the sensogram experimental data assuming a 1:1 interaction using BIAevaluation software (GE, BR-1005-97).

[7] = molecular target: T2, mouse tenascin-C rCd4-His-FBG; experiment: SPR, captured purified IgG4, 37 C
Procedure: as §2

Binder | fold improvement in binding over parent [4] | % inhibition of FRET signal [5] | other results
B1 |  |  | koff [1]: 5.6e-06 s⁻¹; koff [2]: 6.9e-06 s⁻¹; koff [3]: 0.0037 s⁻¹
B2 |  |  | koff [1]: 6.2e-07 s⁻¹; koff [2]: 3.7e-06 s⁻¹; koff [3]: 0.004 s⁻¹
B3 | ≥ 10 fold | ≥ 83% | 
B4 | ≥ 10 fold | ≥ 83% | 
B5 | ≥ 10 fold | ≥ 83% | 
B6 | ≥ 10 fold | ≥ 90% | 
B7 | ≥ 10 fold | ≥ 83% | 
B8 | ≥ 10 fold | ≥ 83% | 
B9 | ≥ 10 fold | ≥ 83% | 
B10 | ≥ 10 fold | ≥ 83% | 
B11 | ≥ 4 fold |  | % inhibition of HTRF signal [5]: ≥ 91%
B12 | ≥ 4 fold |  | % inhibition of HTRF signal [5]: ≥ 91%
B13 | ≥ 4 fold |  | % inhibition of HTRF signal [5]: ≥ 91%
B14 |  |  | Kd [6]: 23.8 nM; koff [6]: 0.0323 s⁻¹; kon [6]: 1.36e+06 M⁻¹ s⁻¹; Kd [7]: 123 nM; koff [7]: 0.0106 s⁻¹; kon [7]: 86800 M⁻¹ s⁻¹; koff [1]: 0.0091 s⁻¹
